# Data taken from the Immune Epitope Database (IEDB).
# Assays:
# HLA-A*11:01 = assay: IEDB peptide-MHC binding, cellular MHC/competitive/fluorescence; ≥ and ≤ were set here for values at or beyond the usual limits of such assays; conditions: source organism: Hepatitis B virus
# HLA-A*31:01 [1] = assay: as above; conditions: source organism: Hepatitis B virus
# HLA-A*68:01 [2] = assay: as above; conditions: source organism: Hepatitis B virus
# HLA-A*68:02 [3] = assay: as above
# HLA-A*02:03 [4] = assay: IEDB peptide-MHC binding, purified MHC/competitive/radioactivity; ≥ and ≤ were set here for values at or beyond the usual limits of such assays
# HLA-A*02:06 [5] = assay: as above
# HLA-A*03:01 [6] = assay: as above; conditions: source organism: Hepatitis B virus
# HLA-A*02:06 [7] = assay: IEDB peptide-MHC binding, cellular MHC/competitive/fluorescence; ≥ and ≤ were set here for values at or beyond the usual limits of such assays
# HLA-A*02:02 [8] = assay: IEDB peptide-MHC binding, purified MHC/competitive/radioactivity; ≥ and ≤ were set here for values at or beyond the usual limits of such assays
# HLA-A*02:01 [9] = assay: as above
# HLA-A*31:01 [10] = assay: as above
# HLA-A*68:01 [11] = assay: as above; conditions: source organism: Hepatitis B virus
# HLA-A*68:02 [12] = assay: as above
# HLA-A*02:01 [13] = assay: IEDB peptide-MHC binding, cellular MHC/competitive/fluorescence; ≥ and ≤ were set here for values at or beyond the usual limits of such assays
# HLA-A*02:02 [14] = assay: as above
# HLA-A*02:03 [15] = assay: as above
# HLA-A*03:01 [16] = assay: as above; conditions: source organism: Hepatitis B virus
# HLA-A*01:01 = assay: as above; conditions: source organism: Vaccinia virus WR
# HLA-A*23:01 = assay: as above; conditions: source organism: Vaccinia virus WR
# HLA-A*24:02 = assay: as above; conditions: source organism: Vaccinia virus WR
# HLA-A*26:01 = assay: as above; conditions: source organism: Vaccinia virus WR
# HLA-A*29:02 = assay: as above; conditions: source organism: Vaccinia virus WR
# HLA-A*30:02 = assay: as above; conditions: source organism: Vaccinia virus WR
# [17] = source organism: Hepatitis B virus
# [18] = source organism: Vaccinia virus WR
sequence,measurement,setting,value
LLPIFFCLWV,IC50,HLA-A*11:01,≥ 70 µM
same,IC50,HLA-A*31:01 [1],6.23 µM
same,IC50,HLA-A*68:01 [2],51 µM
same,IC50,HLA-A*68:02 [3]; [17],≥ 70 µM
same,IC50,HLA-A*02:03 [4]; [17],0.015 µM
same,IC50,HLA-A*02:06 [5]; [17],0.0023 µM
same,IC50,HLA-A*03:01 [6],1.33 µM
HLYSHPIIL,IC50,HLA-A*02:06 [7]; [17],9.45 µM
same,IC50,HLA-A*11:01,≥ 70 µM
same,IC50,HLA-A*31:01 [1],46 µM
same,IC50,HLA-A*68:01 [2],≥ 70 µM
same,IC50,HLA-A*68:02 [3]; [17],22.7 µM
same,IC50,HLA-A*02:02 [8]; [17],0.081 µM
same,IC50,HLA-A*02:03 [4]; [17],0.018 µM
same,IC50,HLA-A*03:01 [6],0.171 µM
FIIFLFILLL,IC50,HLA-A*11:01,7.47 µM
same,IC50,HLA-A*02:01 [9]; [17],0.105 µM
same,IC50,HLA-A*02:02 [8]; [17],0.441 µM
same,IC50,HLA-A*02:03 [4]; [17],0.181 µM
same,IC50,HLA-A*02:06 [5]; [17],1.42 µM
same,IC50,HLA-A*03:01 [6],0.139 µM
same,IC50,HLA-A*31:01 [10]; [17],0.692 µM
same,IC50,HLA-A*68:01 [11],3.7 µM
same,IC50,HLA-A*68:02 [12]; [17],0.737 µM
RILTIPQSL,IC50,HLA-A*02:01 [13]; [17],39.1 µM
same,IC50,HLA-A*02:02 [14]; [17],6.45 µM
same,IC50,HLA-A*02:03 [15]; [17],9.77 µM
same,IC50,HLA-A*02:06 [7]; [17],5.95 µM
same,IC50,HLA-A*03:01 [16],≥ 70 µM
same,IC50,HLA-A*11:01,≥ 70 µM
same,IC50,HLA-A*31:01 [1],36.9 µM
same,IC50,HLA-A*68:01 [2],≥ 70 µM
same,IC50,HLA-A*68:02 [3]; [17],≥ 70 µM
SQAKKPEVRI,IC50,HLA-A*01:01,≥ 70 µM
same,IC50,HLA-A*02:01 [13]; [18],46.3 µM
same,IC50,HLA-A*02:02 [14]; [18],10.7 µM
same,IC50,HLA-A*02:06 [7]; [18],5.86 µM
same,IC50,HLA-A*23:01,51.7 µM
same,IC50,HLA-A*24:02,32.1 µM
same,IC50,HLA-A*26:01,≥ 70 µM
same,IC50,HLA-A*29:02,≥ 70 µM
same,IC50,HLA-A*30:02,≥ 70 µM
same,IC50,HLA-A*02:03 [4]; [18],2.37 µM
same,IC50,HLA-A*68:02 [12]; [18],1.67 µM
KQYLNLYPV,IC50,HLA-A*03:01 [16],≥ 70 µM
same,IC50,HLA-A*11:01,30.4 µM
same,IC50,HLA-A*68:01 [2],≥ 70 µM
same,IC50,HLA-A*68:02 [3]; [17],36.8 µM
same,IC50,HLA-A*02:01 [9]; [17],0.138 µM
same,IC50,HLA-A*02:02 [8]; [17],0.224 µM
same,IC50,HLA-A*02:03 [4]; [17],0.0045 µM
same,IC50,HLA-A*02:06 [5]; [17],0.011 µM
same,IC50,HLA-A*31:01 [10]; [17],0.189 µM
LQDIVNEHDI,IC50,HLA-A*01:01,≥ 70 µM
same,IC50,HLA-A*02:01 [13]; [18],23.3 µM
same,IC50,HLA-A*02:02 [14]; [18],7.63 µM
same,IC50,HLA-A*02:03 [15]; [18],38.2 µM
same,IC50,HLA-A*02:06 [7]; [18],10.8 µM
same,IC50,HLA-A*23:01,≥ 70 µM
same,IC50,HLA-A*24:02,≥ 70 µM
same,IC50,HLA-A*26:01,≥ 70 µM
same,IC50,HLA-A*29:02,≥ 70 µM
same,IC50,HLA-A*30:02,≥ 70 µM
same,IC50,HLA-A*68:02 [3]; [18],≥ 70 µM
KLYIALCKV,IC50,HLA-A*68:02 [3]; [18],16.6 µM
same,IC50,HLA-A*02:01 [9]; [18],0.0067 µM
same,IC50,HLA-A*02:02 [8]; [18],0.016 µM
same,IC50,HLA-A*02:03 [4]; [18],0.0014 µM
same,IC50,HLA-A*02:06 [5]; [18],0.097 µM
same,IC50,HLA-A*31:01 [10]; [18],0.739 µM
LLDYQGMLPV,IC50,HLA-A*11:01,28.5 µM
same,IC50,HLA-A*68:01 [2],≥ 70 µM
same,IC50,HLA-A*02:06 [5]; [17],0.0026 µM
same,IC50,HLA-A*03:01 [6],0.063 µM
same,IC50,HLA-A*31:01 [10]; [17],4.01 µM
same,IC50,HLA-A*68:02 [12]; [17],0.626 µM
YQNEVTPEYI,IC50,HLA-A*01:01,≥ 70 µM
same,IC50,HLA-A*23:01,26.9 µM
same,IC50,HLA-A*24:02,≥ 70 µM
same,IC50,HLA-A*26:01,≥ 70 µM
same,IC50,HLA-A*29:02,19.4 µM
same,IC50,HLA-A*30:02,8.74 µM
same,IC50,HLA-A*68:02 [3]; [18],8.57 µM
same,IC50,HLA-A*02:01 [9]; [18],0.0081 µM
same,IC50,HLA-A*02:02 [8]; [18],0.0027 µM
same,IC50,HLA-A*02:03 [4]; [18],0.00021 µM
same,IC50,HLA-A*02:06 [5]; [18],0.0026 µM
MMWYWGPSL,IC50,HLA-A*68:01 [2],≥ 70 µM
same,IC50,HLA-A*02:02 [8]; [17],0.137 µM
same,IC50,HLA-A*02:03 [4]; [17],0.054 µM
same,IC50,HLA-A*31:01 [10]; [17],0.131 µM
LVPFVQWFV,IC50,HLA-A*03:01 [16],≥ 70 µM
same,IC50,HLA-A*11:01,69.8 µM
same,IC50,HLA-A*68:01 [2],≥ 70 µM
same,IC50,HLA-A*02:01 [9]; [17],0.168 µM
same,IC50,HLA-A*02:03 [4]; [17],0.071 µM
same,IC50,HLA-A*02:06 [5]; [17],0.055 µM
same,IC50,HLA-A*31:01 [10]; [17],1.82 µM
same,IC50,HLA-A*68:02 [12]; [17],0.019 µM
ILCWGELMTL,IC50,HLA-A*03:01 [16],9.08 µM
same,IC50,HLA-A*11:01,≥ 70 µM
same,IC50,HLA-A*68:01 [2],43.9 µM
same,IC50,HLA-A*68:02 [3]; [17],7.82 µM
same,IC50,HLA-A*02:02 [8]; [17],0.0067 µM
same,IC50,HLA-A*02:03 [4]; [17],0.0053 µM
same,IC50,HLA-A*02:06 [5]; [17],0.007 µM
same,IC50,HLA-A*31:01 [10]; [17],1.86 µM
SLYADSPSV,IC50,HLA-A*11:01,≥ 70 µM
same,IC50,HLA-A*31:01 [1],14.6 µM
same,IC50,HLA-A*68:01 [2],≥ 70 µM
same,IC50,HLA-A*68:02 [3]; [17],13.7 µM
same,IC50,HLA-A*02:02 [8]; [17],0.012 µM
same,IC50,HLA-A*02:03 [4]; [17],0.0034 µM
same,IC50,HLA-A*02:06 [5]; [17],0.883 µM
same,IC50,HLA-A*03:01 [6],2.02 µM
TQVKELGIAI,IC50,HLA-A*01:01,≥ 70 µM
same,IC50,HLA-A*23:01,38.6 µM
same,IC50,HLA-A*24:02,≥ 70 µM
same,IC50,HLA-A*26:01,49.6 µM
same,IC50,HLA-A*29:02,≥ 70 µM
same,IC50,HLA-A*30:02,≥ 70 µM
same,IC50,HLA-A*02:01 [9]; [18],1.76 µM
same,IC50,HLA-A*02:02 [8]; [18],2.17 µM
same,IC50,HLA-A*02:03 [4]; [18],0.704 µM
same,IC50,HLA-A*02:06 [5]; [18],0.0039 µM
same,IC50,HLA-A*68:02 [12]; [18],1.18 µM
ILRGTSFVYV,IC50,HLA-A*11:01,≥ 70 µM
same,IC50,HLA-A*68:01 [2],≥ 70 µM
same,IC50,HLA-A*68:02 [3]; [17],37.2 µM
same,IC50,HLA-A*02:02 [8]; [17],0.0039 µM
same,IC50,HLA-A*02:03 [4]; [17],0.0022 µM
same,IC50,HLA-A*02:06 [5]; [17],0.083 µM
same,IC50,HLA-A*03:01 [6],4.77 µM
same,IC50,HLA-A*31:01 [10]; [17],1.36 µM
